Test system: rabbit EE
Experiment: Barrier breaker search: rabbit EE in U-chambers, monitoring RT (marker of PCP) and Isc
Format: cell-based
Conditions: at pH 2
Excerpt: Agents that increase paracellular permeability (PCP) in EE are potential contributors to GERD by enabling diffusion of luminal acid into the intercellular space. Therefore, substances were sought within the refluxate, meals and inflammation that could ‘break the barrier’. This was done by exposing rabbit EE in U-chambers to candidate inflammatory agents while both monitoring RT, as a marker of PCP, and Isc (short circuit current), as a marker of active transport. The inflammatory agents were selected based on presence in EE or on reports that they can break the barrier in other epithelia (47-60).

B1: pepsin: barrier breaker identified at pH 2 (protein, UniProt P0DJD8 63-388, looked up)
Pepsin A-3: VDEQPLENYLDMEYFGTIGIGTPAQDFTVVFDTGSSNLWVPSVYCSSLACTNHNRFNPEDSSTYQSTSETVSITYGTGSMTGILGYDTVQVGGISDTNQIFGLSETEPGSFLYYAPFDGILGLAYPSISSSGATPVFDNIWNQGLVSQDLFSVYLSADDQSGSVVIFGGIDSSYYTGSLNWVPVTVEGYWQITVDSITMNGEAIACAEGCQAIVDTGTSLLTGPTSPIANIQSDIGASENSDGDMVVSCSAISSLPDIVFTINGVQYPVPPSAYILQSEGSCISGFQGMNLPTESGELWILGDVFIRQYFTVFDRANNQVGLAPVA
- breaks the barrier (RT as marker of PCP): barrier breakers
